2 molecules from publication doi:10.1101/2020.04.07.029496 (bioRxiv, 2020) can be followed below.

For assay [1], the target named is E. gossypii Tip20 (residues 1-672) (E. gossypii). Put plainly: ITC.
Assay [2] addresses T1, S. cerevisiae Tip20_(I481D,L585D) (S. cerevisiae, UniProt P33891 1-701, I481D | L585D).
T1 sequence: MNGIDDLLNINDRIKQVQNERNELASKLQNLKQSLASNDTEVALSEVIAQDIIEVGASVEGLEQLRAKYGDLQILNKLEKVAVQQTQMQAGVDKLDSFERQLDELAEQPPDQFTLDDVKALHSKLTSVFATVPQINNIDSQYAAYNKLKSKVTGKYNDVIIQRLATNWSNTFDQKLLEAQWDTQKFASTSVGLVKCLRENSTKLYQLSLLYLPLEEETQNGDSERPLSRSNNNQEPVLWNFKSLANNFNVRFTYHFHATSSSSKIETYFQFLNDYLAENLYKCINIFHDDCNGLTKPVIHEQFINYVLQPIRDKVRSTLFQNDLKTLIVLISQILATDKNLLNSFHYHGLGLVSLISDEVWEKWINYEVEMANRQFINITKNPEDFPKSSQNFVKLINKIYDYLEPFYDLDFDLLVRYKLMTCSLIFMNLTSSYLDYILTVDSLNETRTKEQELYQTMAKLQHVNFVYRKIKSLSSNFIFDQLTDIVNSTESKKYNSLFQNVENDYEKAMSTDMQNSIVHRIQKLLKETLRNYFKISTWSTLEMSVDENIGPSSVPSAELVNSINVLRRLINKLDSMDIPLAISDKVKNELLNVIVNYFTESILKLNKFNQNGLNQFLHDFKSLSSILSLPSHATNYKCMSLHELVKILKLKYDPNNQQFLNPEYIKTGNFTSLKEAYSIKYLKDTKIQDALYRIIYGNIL
Put plainly: ITC.

As for “E. gossypii MBP-Sec20NTD (domain or fragment)”, the equilibrium dissociation constant (Kd) in assay [1] was 100 nM.

B1: S. cerevisiae Sec20_(1-174) (domain or fragment, UniProt P28791 1-174, looked up)
chain: MVVTFLQDLEVLQDALLNNLQKLSAISRRKESGESKHDNKDSFAAIANEHNDEEEEIEFEDLVNIIESKVSDFESVLKCSIVEMTYKYPELKLQWEKSPRYDQCDKLHIVKLDKQMNEDIYAQLVEELDFVLQFVDWFYCYRLKVKEILRQHHKRDLAWNDEKRDRAIKFHAVD
Take B1: in assay [2], the “fold increase in KD against wild-type Tip20” value came out at 15 fold.
